To fix the notation:
B1: HERVK-003 (peptide)
peptide: TLLSYSIPL
notes: From a human endogenous retrovirus; also called TLLSYSIPL
B2: HERVK-002 (peptide)
peptide: STTIINLIL
notes: From a human endogenous retrovirus; also called STTIINLIL

This assay addresses T1, HLA-A*02:01 (human).
T1 construct: captured on streptavidin plates, detected with anti-β2m; also called peptide-receptive MHC molecules; MHC class I
Kind of assay: UV-ligand exchange + anti-β2m ELISA; exchange yield grade: ≥10% +, ≥20% ++, ≥50 +++, ≥75% ++++. As to the method:
The individual peptide-MHC complexes were produced by UV-ligand exchange, where a UV-sensitive peptide is cleaved upon UV-irradiation and exchanged with the peptide of interest as analyzed. Only peptide candidates that can effectively bind and stabilize the peptide-receptive MHC molecules prevent dissociation of the MHC complexes. To determine the yield of the exchange reaction, an ELISA was performed based on the detection of the light chain (β2m) of stabilized MHC complexes. The assay was performed as generally described in Rodenko et al. (Rodenko et al., 2006).
96 well MAXISorp plates (NUNC) were coated over night with 2 μg/ml streptavidin in PBS at room temperature, washed 4× and blocked for 1 h at 37° C. in 2% BSA containing blocking buffer. Refolded HLA-A*02:01/MLA-001 monomers served as standards, covering the range of 15-500 ng/ml. Peptide-MHC monomers of the UV-exchange reaction were diluted 100 fold in blocking buffer. Samples were incubated for 1 h at 37° C., washed four times, incubated with 2 μg/ml HRP conjugated anti-β2m for 1 h at 37° C., washed again and detected with TMB solution that is stopped with […]. Absorption was measured at 450 nm. Candidate peptides that show a high exchange yield (preferably higher than 50%, most preferred higher than 75%) are generally preferred for a generation and production of antibodies or fragments thereof, and/or T cell receptors or fragments thereof, as they show sufficient avidity to the MHC molecules and prevent dissociation of the MHC complexes.
(In general: In an ELISA, binding on a coated surface is turned into a signal by an enzyme label.)
Consider TISISLSSV (also called TISISLSSV) [altORF-051], for which the peptide exchange yield is ≥ 75%.
Take IITNLIVNI (also called IITNLIVNI) [altORF-054]: the peptide exchange yield lay within 50 to 75%.
On to IAISQLTFV (also called IAISQLTFV) [altORF-063], for which the peptide exchange yield is ≥ 75%.
For the molecule YVLMTSLLL (also called YVLMTSLLL) [altORF-055], the peptide exchange yield was ≥ 75%.
Consider GLASYLDRV (also called GLASYLDRV) [altORF-048], for which the peptide exchange yield was ≥ 75%.
The figure for ALHDSPVYL (also called ALHDSPVYL) [altORF-004] is ≥ 75%.
As for FLWDPRDVVL (also called FLWDPRDVVL) [altORF-047], the peptide exchange yield was ≥ 75%.
Turning to YIYEDEVRL (also called YIYEDEVRL) [altORF-037], the peptide exchange yield was ≥ 75%.
With VLPWQPLLL (also called VLPWQPLLL) [altORF-059], the peptide exchange yield was 20 to 50%.
With MVQQEKLFV (also called MVQQEKLFV) [altORF-053] the figure was 50 to 75%.
As to MLAEIHPKA (also called MLAEIHPKA) [altORF-046], the peptide exchange yield is ≥ 75%.
For the molecule SLGPPPVGV (also called SLGPPPVGV) [CIZ1-001], the peptide exchange yield was ≥ 75%.
With GLLTQVHIL (also called GLLTQVHIL) [altORF-049], the peptide exchange yield is ≥ 75%.
On to KILDEFYNV (also called KILDEFYNV) [altORF-035], for which the peptide exchange yield was ≥ 75%.
For the molecule ALKELMGPA (also called ALKELMGPA) [altORF-065], the peptide exchange yield was 20 to 50%.
For KLLADAFKV (also called KLLADAFKV) [altORF-066], the peptide exchange yield was ≥ 75%.
Take LVWEVVESV (also called LVWEVVESV) [altORF-003]: the peptide exchange yield was ≥ 75%.
Take LLLATLENL (also called LLLATLENL) [altORF-058]: the peptide exchange yield was ≥ 75%.
SLSAWLPSL (also called SLSAWLPSL) [altORF-036]: the peptide exchange yield is ≥ 75%.
For LLLALRLSL (also called LLLALRLSL) [altORF-062], the peptide exchange yield was in the range of 10 to 20%.
In the case of FTLPFLVNL (also called FTLPFLVNL) [altORF-038], the peptide exchange yield was ≥ 75%.
Turning to ALMDGSESRFFV (also called ALMDGSESRFFV) [BSG-001], the peptide exchange yield was ≥ 75%.
Consider LAASTTFLGV (also called LAASTTFLGV) [altORF-057], for which the peptide exchange yield is ≥ 75%.
With KIIEDLANTV (also called KIIEDLANTV) [KRT18-001] the figure was ≥ 75%; with LMASEGIWESSL (also called LMASEGIWESSL) [altORF-039], 50 to 75%.
For the molecule ALYHQSPLL (also called ALYHQSPLL) [altORF-043], the peptide exchange yield was ≥ 75%.
The figure for SLLGKPGLTI (also called SLLGKPGLTI) [altORF-060] is ≥ 75%.
As for AIWSTILIA (also called AIWSTILIA) [altORF-041], the peptide exchange yield was in the range of 20 to 50%.
As for LLLQIEPAA (also called LLLQIEPAA) [altORF-068], the peptide exchange yield was ≥ 75%.
The figure for ALLPGVPGL (also called ALLPGVPGL) [altORF-045] is ≥ 75%; for LLCPVVLQL (also called LLCPVVLQL) [altORF-067] it is ≥ 75%.
The figure for FQVTRTTGV (also called FQVTRTTGV) [altORF-034] is ≥ 75%; for WITPVIPAL (also called WITPVIPAL) [altORF-040] it is ≥ 75%.
Turning to WLIPRQLAAA (also called WLIPRQLAAA) [altORF-042], the peptide exchange yield was ≥ 75%.
The figure for LSFKRSLSI (also called LSFKRSLSI) [altORF-061] is 20 to 50%; for ILNELLNSI (also called ILNELLNSI) [altORF-064] it is ≥ 75%.
With LLNVEPAGA (also called LLNVEPAGA) [altORF-032] the figure was ≥ 75%; with SLMEVTHDL (also called SLMEVTHDL) [LARS-001], ≥ 75%; with MIISHRALEL (also called MIISHRALEL) [altORF-056], 20 to 50%.
Turning to LAFVSHVLI (also called LAFVSHVLI) [altORF-050], the peptide exchange yield was 20 to 50%.
As for YLGDSHVLL (also called YLGDSHVLL) [altORF-002], the peptide exchange yield was ≥ 75%.
In the case of GLIDDKGTIKL (also called GLIDDKGTIKL) [CDC2-006], the peptide exchange yield was ≥ 75%.
With GLSPDQVFL (also called GLSPDQVFL) [altORF-052] the figure was ≥ 75%; with AMVEIIPKV (also called AMVEIIPKV) [altORF-044], ≥ 75%.
With VLLNSNYPV (also called VLLNSNYPV) [altORF-033] the figure was ≥ 75%.
For the molecule ALWEEVKATSL (also called ALWEEVKATSL) [altORF-005], the peptide exchange yield was ≥ 75%.
Turning to B1, the peptide exchange yield is ≥ 75%.
Take B2: the peptide exchange yield is 20 to 50%.
Turning to WLMPVMPAL (also called WLMPVMPAL) [altORF-069], the peptide exchange yield is ≥ 75%.

(Values after patent US20230241113A1 (IMMATICS BIOTECHNOLOGIES, published 2023).)
